Measurements from US20230380451A1, “MEANS AND METHODS TO DETOXIFY MYCOTOXINS” (priority 2020, published 2023).

What was measured:
[1] = Kinetic parameters of DON transformation (Michaelis-Menten fit); type: biochemical; conditions: 200 nM enzyme, TS buffer pH 6.0, 1 mM NADPH
Description: (§1) To determine the transformation of DON to epi-THS by Akr I-III, described herein, the following assay was performed. An assay buffer was prepared containing 40 ppm DON, 1 mM NADPH in Teorell Stenhagen (TS) buffer, pH 6.0 (Östling and Virtama, Acta Physiologica Scandinavica, 1946, 11:4, 289-293). Tubes containing the assay buffer were transferred in a heating block at 30° C. The reaction was started by addition of Akr I-III to a final concentration of 200 nM in a final reaction volume of 200 μL. Samples were taken before reaction start, and 2, 5, 10, 15 and 20 min after reaction start. DON transformation reactions in these samples were stopped by mixing with absolute methanol at a 1:2 ratio, followed by a 1:100 dilution with 40% methanol. The concentrations of DON and epi-THS in the samples were determined with liquid chromatography-mass spectrometry (LC-MS) on a Sciex 5500 triple quadrupole mass spectrometer coupled to Agilent 1290 series UHPLC system, using the following MS parameters: Acquisition duration: 4 min; Scan Type: MRM (MRM); Polarity: Negative; Ion Source: Turbo Spray.
Kinetic parameters were determined by performing the DON transformation assay as described in Example 3. Akr I-III were used at a final concentration of 200 nM in Teorell Stenhagen (TS) buffer, pH 6.0 (Ostling and Virtama, Acta Physiologica Scandinavica, 1946, 11:4, 289-293) further containing 1 mM NADPH and DON at a concentration of either 3.38 μM, 33.78 μM, 135.14 μM, 270.27 μM or 1182.43 μM. The observed reaction rates and the corresponding DON concentrations were fitted to the Michaelis-Menten function used to describe enzyme kinetics. The fitting was done using the program SigmaPlot (Systat Software Inc.) to calculate the maximum DON transformation rate of Akr I-III in the assay (Vmax), the Michaelis constant (KM) and the turnover number (kcat). […].

[2] = Storage stability in storage buffer at different temperatures, residual DON transformation activity; type: biochemical; conditions: for Relative DON transformation activity: storage buffer
Description: as §1
The storage stability of Akr I-III was tested by incubation of 5 μM enzyme solutions in storage buffer (50 mM Tris pH 9.0, 0.5M NaCl, 50% Glycerol), for 60 min in a thermocycler (Mastercycler, Eppendorf) set to gradient mode from 30° C. to 50° C. Throughout the incubation, samples were removed and placed on ice until DON transformation assays were performed as described in Example 3 to determine enzyme activities. The starting activity at time 0 min was set to 100% and the relative residual activities were determined throughout the incubation. Akr I retained more than 33% activity during 60 min in pH 6 at temperatures from 29.9° C. to 46.0° C. Akr III retained 15% to 90% activity during 20 min in pH 6 at temperatures from 29.9° C. to 40.7° C.

B1: Akr I: artificial amino acid sequence, variant of a wild type aldo-keto reductase (protein)
chain: MRTTEISQGLKVSNLCIGAGPLGGMPTAFGYDVSEERGIATVQAVFDSPINFMDTSSEYGDSEVRIGKVIREGRMPKGFVIATKADAEGDGTARRGDFSAKQVRASFELSLERLGLTHIDVYFLHDPEKFPFEHVMARGGAMEELLRLKDEGLVGLVGVAGGDVVEMARYVDTGNLDILLNYGRYTLLDRSADSLIDKASDAGMAFLNAGPYASGLLAAPRGGSAWYQYAPPNADALQAVDQLHELCESFDVSLRSVALQFSMRDPRITSTVVGLSRPERVRALLDDAAAEIPAELWDQLPAPLNLPWNSLA
modifications: ArkI
Question: What does the source list for B1?
Answer: Vmax (maximum DON transformation rate) [1]: 8471 U/mg; kcat (turnover number) [1]: 5.08 s⁻¹; Km ([1]; substrate DON, read-out: KM (Michaelis constant)): 143 µM; retained activity ([2]; during 60 min in pH 6 at temperatures from 29.9° C. to 46.0° C.): more than 33%; Relative DON transformation activity ([2]; 29.9° C., 0 min (starting activity set to 100%)): 100.00%; Relative DON transformation activity ([2]; 29.9° C., 5 min): 121.5%; Relative DON transformation activity ([2]; 29.9° C., 10 min): 114.8%; Relative DON transformation activity ([2]; 29.9° C., 20 min): 118.9%; Relative DON transformation activity ([2]; 29.9° C., 35 min): 106.2%; Relative DON transformation activity ([2]; 29.9° C., 50 min): 70.1%; Relative DON transformation activity ([2]; 29.9° C., 60 min): 53.7%; Relative DON transformation activity ([2]; 35.3° C., 0 min (starting activity set to 100%)): 100.00%; Relative DON transformation activity ([2]; 35.3° C., 5 min): 132.8%; Relative DON transformation activity ([2]; 35.3° C., 10 min): 97.7%; Relative DON transformation activity ([2]; 35.3° C., 20 min): 101.5%; Relative DON transformation activity ([2]; 35.3° C., 35 min): 109.7%; Relative DON transformation activity ([2]; 35.3° C., 50 min): 84.6%; Relative DON transformation activity ([2]; 35.3° C., 60 min): 47.0%; Relative DON transformation activity ([2]; 37.9° C., 0 min (starting activity set to 100%)): 100.00%; Relative DON transformation activity ([2]; 37.9° C., 5 min): 130.1%; Relative DON transformation activity ([2]; 37.9° C., 10 min): 101.4%; Relative DON transformation activity ([2]; 37.9° C., 20 min): 110.1%; Relative DON transformation activity ([2]; 37.9° C., 35 min): 109.0%; Relative DON transformation activity ([2]; 37.9° C., 50 min): 77.0%; Relative DON transformation activity ([2]; 37.9° C., 60 min): 48.6%; Relative DON transformation activity ([2]; 40.7° C., 0 min (starting activity set to 100%)): 100.00%; Relative DON transformation activity ([2]; 40.7° C., 5 min): 130.2%; Relative DON transformation activity ([2]; 40.7° C., 10 min): 100.7%; Relative DON transformation activity ([2]; 40.7° C., 20 min): 60.5%; Relative DON transformation activity ([2]; 40.7° C., 35 min): 95.8%; Relative DON transformation activity ([2]; 40.7° C., 50 min): 76.1%; Relative DON transformation activity ([2]; 40.7° C., 60 min): 50.0%; Relative DON transformation activity ([2]; 43.4° C., 0 min (starting activity set to 100%)): 100.00%; Relative DON transformation activity ([2]; 43.4° C., 5 min): 133.6%; Relative DON transformation activity ([2]; 43.4° C., 10 min): 111.3%; Relative DON transformation activity ([2]; 43.4° C., 20 min): 79.1%; Relative DON transformation activity ([2]; 43.4° C., 35 min): 75.2%; Relative DON transformation activity ([2]; 43.4° C., 50 min): 60.2%; Relative DON transformation activity ([2]; 43.4° C., 60 min): 52.9%; Relative DON transformation activity ([2]; 46.0° C., 0 min (starting activity set to 100%)): 100.00%; Relative DON transformation activity ([2]; 46.0° C., 5 min): 125.9%; Relative DON transformation activity ([2]; 46.0° C., 10 min): 123.1%; Relative DON transformation activity ([2]; 46.0° C., 20 min): 83.4%; Relative DON transformation activity ([2]; 46.0° C., 35 min): 61.8%; Relative DON transformation activity ([2]; 46.0° C., 50 min): 3.0%; Relative DON transformation activity ([2]; 46.0° C., 60 min): 33.1%; Relative DON transformation activity ([2]; 50.8° C., 0 min (starting activity set to 100%)): 100.00%; Relative DON transformation activity ([2]; 50.8° C., 5 min): 118.6%; Relative DON transformation activity ([2]; 50.8° C., 10 min): 44.2%; Relative DON transformation activity ([2]; 50.8° C., 20 min): 16.3%; Relative DON transformation activity ([2]; 50.8° C., 35 min): 4.9%; Relative DON transformation activity ([2]; 50.8° C., 50 min): 7.5%; Relative DON transformation activity ([2]; 50.8° C., 60 min): 0%
